Sequences and labels used below:
B1: Protein BMH2 (Saccharomyces cerevisiae), P34730 (parent)
chain: MSQTREDSVYLAKLAEQAERYEEMVENMKAVASSGQELSVEERNLLSVAYKNVIGARRASWRIVSSIEQKEESKEKSEHQVELIRSYRSKIETELTKISDDILSVLDSHLIPSATTGESKVFYYKMKGDYHRYLAEFSSGDAREKATNSSLEAYKTASEIATTELPPTHPIRLGLALNFSVFYYEIQNSPDKACHLAKQAFDDAIAELDTLSEESYKDSTLIMQLLRDNLTLWTSDISESGQEDQQQQQQQQQQQQQQQQQAPAEQTQGEPTK

From IntAct's records for PubMed 17299042 come the findings set out here.

The variants in this test derive from B1. Conditions: with rad53_yeast RAD53, P22216.
Chain of rad53_yeast RAD53, P22216 (P22216 whole entry): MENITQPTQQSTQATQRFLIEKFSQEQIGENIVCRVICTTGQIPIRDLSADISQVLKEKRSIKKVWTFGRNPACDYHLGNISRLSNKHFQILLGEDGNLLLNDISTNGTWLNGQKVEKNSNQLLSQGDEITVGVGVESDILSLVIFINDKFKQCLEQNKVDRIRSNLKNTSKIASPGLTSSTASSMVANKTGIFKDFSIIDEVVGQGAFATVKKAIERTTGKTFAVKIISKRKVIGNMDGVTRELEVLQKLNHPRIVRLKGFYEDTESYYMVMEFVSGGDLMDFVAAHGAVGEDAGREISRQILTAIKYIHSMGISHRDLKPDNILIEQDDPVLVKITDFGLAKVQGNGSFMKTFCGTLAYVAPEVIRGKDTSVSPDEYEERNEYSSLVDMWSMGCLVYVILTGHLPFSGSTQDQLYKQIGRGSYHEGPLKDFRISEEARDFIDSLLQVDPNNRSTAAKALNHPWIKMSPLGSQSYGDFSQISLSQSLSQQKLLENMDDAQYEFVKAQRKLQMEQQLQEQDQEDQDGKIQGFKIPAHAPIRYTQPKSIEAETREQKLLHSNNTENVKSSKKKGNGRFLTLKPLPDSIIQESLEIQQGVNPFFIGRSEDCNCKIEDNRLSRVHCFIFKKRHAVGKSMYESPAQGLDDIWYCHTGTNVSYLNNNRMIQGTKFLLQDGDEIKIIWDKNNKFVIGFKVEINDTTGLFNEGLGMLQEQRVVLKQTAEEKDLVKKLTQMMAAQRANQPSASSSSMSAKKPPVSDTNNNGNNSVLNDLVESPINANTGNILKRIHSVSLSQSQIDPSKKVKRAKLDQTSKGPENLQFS
On to K51L, for which the “effect of a mutation on the interaction” value was “decreasing interaction strength”. The entry for K51R is “decreasing interaction strength”; for E185D it is “disrupting interaction strength”; for L225Q it is “disrupting interaction strength”.
